B1: HDV Ribozyme (parent)
chain: GGCCGGCAUGGUCCCAGCCUCCUCGCUGGCGCCGGCUGGGCAACAUUCCGAGGGGACCGUCCCCUCGGUAAUGGCGAAUGGGACCCA

Variants of: B1
Assay: self-cleavage, relative activity (ratio to wild type); higher = more cleavage; co-transcriptional

Row | Variant | self-cleavage
1 | U47C C75U | 0.0791
2 | U47C C75G | 0
3 | U47G A77U | 0.665
4 | C48G C63A | 0.435
5 | C48G C63U | 1.08
6 | C49G C58G | 0.855
7 | U47G C84U | 0.346
8 | C49G C57A | 1.19
9 | C48A A56G | 1.2
10 | C49A C61G | 0.816
11 | U47G G53A | 1.15
12 | U47G G53C | 1.19
13 | C49A A70U | 0.812
14 | C48A C85A | 0.717
15 | C48A C85G | 0.867
16 | C48A C85U | 1.16
17 | C48A G52A | 0.926
18 | U47C C86A | 0.806
19 | U47G C61A | 1.2
20 | U47G G68U | 1.01
21 | U47G G68C | 0.499
22 | U47G G68A | 0.831
23 | U47C U69G | 1.02
24 | U47C U69A | 0.762

Row | Variant | self-cleavage
25 | U47G A83G | 0.8
26 | U47G A83U | 0.525
27 | C48A G50C | 1.11
28 | C48A G50U | 1.17
29 | C48A G50A | 0.969
30 | U47C G52A | 0.853
31 | U47C G52C | 0.917
32 | U47G U72C | 0.554
33 | U47G U72A | 0.831
34 | C48G U65A | 0.511
35 | C48G U65C | 0.931
36 | C48G U65G | 0.504
37 | U47G G76C | 0.727
38 | U47G G76A | 1.25
39 | U47G U79G | 0.415
40 | U47G U79A | 0.95
41 | C48G G68U | 0.88
42 | C48G G68A | 0.723
43 | U47G C48U | 1.02
44 | U47G C48A | 0.798
45 | U47G C58A | 1.48
46 | C49A A77G | 0.458
47 | C49A A77C | 0.252
48 | C49A A77U | 0.404

Row | Variant | self-cleavage
49 | C48G G80A | 0.4
50 | C49A C86A | 1.22
51 | C49A C86U | 0.795
52 | C48U A78U | 0.298
53 | U47G G67C | 0.554
54 | U47G G67U | 0.929
55 | U47G G67A | 0.831
56 | U47C C66U | 0.725
57 | C49A G82C | 0.222
58 | C48G G76A | 1.12
59 | C48G G76C | 0.867
60 | C48G G76U | 0.997
61 | C48G C64A | 0.344
62 | U47G G54A | 1.18
63 | U47G G54U | 1.07
64 | U47C G81U | 0.443
65 | U47C G81A | 0.332
66 | C49A C64U | 0.831
67 | C48G G82A | 0.403
68 | C48U C58U | 0.904
69 | C48G A77C | 0.323
70 | C48G A77G | 0.755
71 | C48A C75U | 0.339
72 | C48A C75A | 0.326

Row | Variant | self-cleavage
73 | C48A C75G | 0.142
74 | C49A G73C | 0.293
75 | C48A G74A | 0.7
76 | C49A U79C | 0.61
77 | C49A U79G | 0.665
78 | U47G | 1.09
79 | C48U U72G | 0.639
80 | C48G G59U | 1.07
81 | C48G G59A | 0.92
82 | C49A U69A | 0.808
83 | U47G C66G | 0.831
84 | U47G C66U | 1.23
85 | C48A C63A | 0.816
86 | C49A C85A | 1.13
87 | C49A C85U | 0.811
88 | C48G G50C | 0.939
89 | C48G G50A | 0.798
90 | C48A G73U | 0.422
91 | C48A G73C | 0.618
92 | C48G C84G | 0.646
93 | U47G C86U | 1.11
94 | C48A C61G | 1.03
95 | C48A C61U | 0.911
96 | U47C U72C | 0.712

Row | Variant | self-cleavage
97 | U47G U60G | 1.21
98 | U47G U60C | 0.767
99 | C48G C66G | 0.906
100 | C49A U60G | 1.33
101 | C49A U60A | 0.745
102 | C48G G53U | 0.893
103 | C48G G53C | 0.776
104 | C48A C58A | 0.831
105 | C48A C58G | 1.12
106 | C48G A83G | 0.779
107 | C48G A83C | 0.573
108 | C48G A83U | 0.554
109 | C48G U69A | 0.956
110 | U47G A56C | 1.09
111 | U47G A56U | 1.11
112 | U47G A56G | 1.08
113 | C48U A83C | 0.906
114 | C48U A83G | 0.671
115 | C48U A83U | 0.475
116 | U47G A78C | 0.185
117 | U47G A78U | 0.196
118 | C48A C84G | 0.727
119 | U47C G80A | 0.215
120 | U47C G80C | 0.138

Row | Variant | self-cleavage
121 | C48G G73C | 0.403
122 | C48G G73A | 0.623
123 | C48G G73U | 0.506
124 | U47G G55A | 0.939
125 | U47G G55C | 1.07
126 | C49G A78C | 0.262
127 | C49G A78U | 0.138
128 | C48U G54A | 0.813
129 | C48G C75U | 0.285
130 | C48G C75A | 0.175
131 | C49A A71G | 0.81
132 | U47G G50A | 0.957
133 | U47G G50C | 0.831
134 | C49A C75U | 0.175
135 | C49A C75G | 0.128
136 | C48A G81A | 0.448
137 | C48A G81U | 0.338
138 | C48A G81C | 0.193
139 | C48U A77G | 0.612
140 | C48U A77C | 0.57
141 | C48U G52A | 0.931
142 | C48A C49G | 1.01
143 | C49A A51U | 0.539
144 | C49A G67A | 1.27

Row | Variant | self-cleavage
145 | C48A G76A | 0.727
146 | C48A G76C | 1.05
147 | C48U A70G | 0.997
148 | C48U A70U | 1.07
149 | C48U G76C | 1.16
150 | U47G G81U | 0.214
151 | U47G G81A | 0.237
152 | C48U G68A | 0.885
153 | U47C U60G | 0.935
154 | U47C G55A | 0.923
155 | U47C G55C | 0.862
156 | C49G A56U | 0.96
157 | C49G A56G | 0.917
158 | C48G A70C | 0.6
159 | U47C G73U | 0.225
160 | U47C G73C | 0.374
161 | U47C G73A | 0.464
162 | C49G A83C | 0.403
163 | C48G C85A | 0.8
164 | C48G C85G | 0.875
165 | C49A G53C | 0.506
166 | C49A G53A | 0.816
167 | U47G A71C | 0.959
